Biological target: main protease from canine coronavirus (CCoV M^pro) (canine coronavirus)
Assay: crystal structure; CCoV M^pro incubated with two-fold molar excess of GC376 at 4 °C for 1 h; crystals from 0.2 M sodium citrate, 0.1 M Bis Tris propane 7.0, 25% w/v PEG 3350 at 20 °C; 2.75 Å, space group C2, eight protomers in the asymmetric unit

“main protease from canine coronavirus (CCoV M^pro) (enzyme)” was tested, and the stoichiometry N was 2.

Source: PMC9145999
